Results taken from US20240352105A1, “COMPOSITIONS AND METHODS FOR NEUTRALIZING ANTIGENS” (PACAGEN, INC, priority 2023, published 2024).

Legend:
[1] = target: T1, recombinant His-tagged Der p1 (dust mite, UniProt P08176 99-320, limits assumed); assay: ELISA, Der p1-His 2 µg/mL, repeat 1
T1 sequence (looked up): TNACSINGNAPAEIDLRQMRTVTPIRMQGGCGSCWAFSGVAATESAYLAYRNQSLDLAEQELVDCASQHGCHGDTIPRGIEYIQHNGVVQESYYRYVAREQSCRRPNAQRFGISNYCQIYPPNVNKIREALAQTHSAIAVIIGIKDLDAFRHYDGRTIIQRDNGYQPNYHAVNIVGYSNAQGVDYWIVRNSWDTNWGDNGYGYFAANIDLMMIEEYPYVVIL

[2] = target: T1, recombinant His-tagged Der p1; assay: ELISA, Der p1-His 2 µg/mL, repeat 2
[3] = target: T1, recombinant His-tagged Der p1; assay: ELISA, Der p1-His 10 µg/mL, repeat 1
[4] = target: T1, recombinant His-tagged Der p1; assay: ELISA, Der p1-His 10 µg/mL, repeat 2
[5] = target: T1, recombinant His-tagged Der p1; assay: ELISA, Der p1-His 0.4 µg/mL, repeat 1
[6] = target: T1, recombinant His-tagged Der p1; assay: ELISA, Der p1-His 0.4 µg/mL, repeat 2
[7] = target: T1, recombinant His-tagged Der p1; assay: ELISA, Der p1-His 0.08 µg/mL, repeat 1
[8] = target: T1, recombinant His-tagged Der p1; assay: ELISA, Der p1-His 0.08 µg/mL, repeat 2
[9] = target: T1, recombinant His-tagged Der p1; assay: ELISA, Der p1-His 0.016 µg/mL, repeat 1
[10] = target: T1, recombinant His-tagged Der p1; assay: ELISA, Der p1-His 0.016 µg/mL, repeat 2
[11] = target: T1, recombinant His-tagged Der p1; assay: ELISA, Der p1-His 0.0032 µg/mL, repeat 1
[12] = target: T1, recombinant His-tagged Der p1; assay: ELISA, Der p1-His 0.0032 µg/mL, repeat 2
[13] = target: T1, recombinant His-tagged Der p1; assay: ELISA, Der p1-His 0.00064 µg/mL, repeat 1
[14] = target: T1, recombinant His-tagged Der p1; assay: ELISA, Der p1-His 0.00064 µg/mL, repeat 2
[15] = target: Fel D1; assay: ELISA binding assay of anti-Fel d1 VHH clones on Fel D1 epitopes; parameters: species or system cat; conditions: Epitope Recognized ENARILKNCVDAKM (SEQ ID NO: 61), VAQYKALPVVLENA (SEQ ID NO: 58)
[16] = Thermostability (Tm, Tonset, Tagg) by Nanotemper DSF; type: physicochemical; parameters: key to Tm2 / Tagg / Tm1 / Tm / Tm3 / Tonset / Tonset ø (mean) / Tagg ø (mean): temperatures in °C; conditions: anti-Fel d1 VHH
How it was run: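 Isolated VHH clones were heated from 20 °C to 95 °C at 1 °C/min using DSF. Tm, Tonset and Tagg were derived from the thermal curves. Where several melting transitions occurred, each was reported in order (Tm1, Tm2, etc.).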

[17] = target: T2, Fel D1 (Felis catus, UniProt P30438+P30440); assay: Size Exclusion Chromatography test of Fel D1 neutralization (tetramer formation); parameters: species or system cat; conditions: 30 ug Fel D1 and 30 ug 1-C3 pre-incubated at 37° C. for 4 hours
T2 sequence (P30438 23-92): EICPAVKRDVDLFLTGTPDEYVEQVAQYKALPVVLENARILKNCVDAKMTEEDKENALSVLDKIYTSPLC
T2 sequence (P30440 18-109): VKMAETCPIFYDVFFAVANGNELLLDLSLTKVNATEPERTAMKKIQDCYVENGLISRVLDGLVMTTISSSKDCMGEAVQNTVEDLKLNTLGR
Method: Functional validation was also performed testing the capability of an exemplary clone to neutralize Fel D1. Fel D1 is naturally a weaker tetramer that causes allergic reactions by causing cross-linking of neighboring IgEs on immune cells (mast cells, etc.). […] On the SEC, there are two distinct peaks for pure Fel D1, the earlier peak representing the tetramer and the laker peak representing the monomer (FIG. 20A). Conditions for this SEC graph are (Column: Zenix-C SEC-80, 7.8×300 mm, 3 um, 80 Å; Sample: Fel D1; Sample Volume: 30 μL (25 ug); Mobile phase: 150 mM phosphate buffer, pH 7.0; Flow rate: 0.7 mL/min; Detection: UV 280 nm; System: Thermo Vanquish Flex.
Conditions for this SEC graph are (Column: Zenix-C SEC-80, 7.8×300 mm, 3 um, 80 Å; Sample: 1-C3; Sample Volume: 30 μL; Mobile phase: 150 mM phosphate buffer, pH 7.0; Flow rate: 0.7 mL/min; Detection: UV 280 nm; System: Thermo Vanquish Flex.
When clone C3 and Fel D1 are incubated together for 4 hours at 37° C. and then assayed, the two Fel D1 peaks were no longer detected and only the C3-Fel D1 complex is detected. […]

[18] = target: T3, Fel D1 epitope peptide SDAB22110-115-28AA-2 (cat); assay: ELISA on Fel D1 epitope peptide; the row names two epitopes (SEQ ID NO: 61 and 58) and one EC50
T3 peptide: ENARILKNCVDAKM
Method: 2 microgram per milliliter (μg/mL) target antigen is coated in a 96-well plate and ELISA assay is performed after incubation with candidate VHHs. The binding EC50 of each clone is calculated using Prism GraphPad. The positive control antibody is involved as an internal control.
Isolated VHH clones were further validated by performing an ELISA assay as described in Example 1. Binding results are shown in FIG. 15B-15D for the epitope of SEQ ID NO: 61. Binding results are shown in FIG. 16 for the epitope of SEQ ID NO: 59. Binding results are shown in FIG. 17A-17E for the epitope of SEQ ID NO: 60. Binding results are shown in FIG. 18 for the epitope of SEQ ID NO: 58.

known Der p1 antibody (clone 10B9) gave an OD at 450 nm [1] of 4.03 OD, an OD at 450 nm [2] of 4.31 OD and an OD at 450 nm [3] of 4.37 OD. It also gave an OD at 450 nm [4] of 4.4 OD, an OD at 450 nm [5] of 1.8 OD and an OD at 450 nm [6] of 1.87 OD. It also gave an OD at 450 nm [7] of 0.58 OD, an OD at 450 nm [8] of 0.49 OD and an OD at 450 nm [9] of 0.2 OD. For the same molecule, the OD at 450 nm [10] was 0.17 OD, the OD at 450 nm [11] was 0.25 OD and the OD at 450 nm [12] was 0.12 OD. The OD at 450 nm [13] was 0.13 OD and the OD at 450 nm [14] was 0.12 OD.

B1: SDAB22110-1-1-C3: anti-Fel d1 VHH clone, SEQ ID NO: 49 (protein)
VHH: AVQLVESGGGLVQPGGSLRLSCAASGFTFTNYAMRWYRQAPGKERELVAAIPTSGGYTYTADSVKGRFTISRDNAKNTVYLQMNSLKPEDTAVYYCYGLRTLSDYYWGQGTQVTVSS
B1 gave an EC50 [15] of 0.352 µg/mL, a Tagg [16] of 58.93 and a Tm ([16]; single melting point, in °C (unit assumed)) of 66.50. For the same molecule, the “Fel D1 tetramer formation (SEC)” value [17] was “preventing the Fel D1 tetramer from forming”.

B2: SDAB22110-1-1-C3 (VHH)
VHH: QLQLVESGGGLVQPGGSLRLSCEASGFTFKYYTMSWYRQAPGKERELVATITNGDRTNYADSVKGRFTISRDNAKNTLYLQMNSLKPYDTAVYYCNRHLPLLQIWGQGTQVTVSS
notes: Expressed from a prokaryotic vector
For B2, the EC50 [18] was 0.352 µg/mL.
